Results as given in paper doi:10.1101/2024.11.16.623948, “Biochemical principles of miRNA targeting in flies”.

Tests used:
[1] = target: T1, FLAG-Ago1 (Drosophila melanogaster, UniProt A1Z9J5 1-950); assay: RBNS; miR-11 guide; RBNS: 20 mM HEPES-KOH pH 7.9, 100 mM KOAc, 3.5 mM Mg(OAc) (magnesium acetate), 0.05% CHAPS, 2 mM DTT, 8% glycerol, BSA, tRNA, 25 C 2 h; filter binding: 25 mM HEPES-KOH pH 7.9, 110 mM KOAc, 3.5 mM magnesium acetate, 2 mM DTT, BSA, tRNA, 8% glycerol, 25 C 2 h; competition: 18 mM HEPES-KOH pH 7.4, 100 mM KOAc, 3 mM magnesium acetate, 5 mM DTT, 0.01% IGEPAL, tRNA, 25 C 1 h; details: protein: recombinant, tags: FLAG
[2] = target: T2, Ago1 (RISC assembled in embryo lysate) (Drosophila melanogaster, UniProt A1Z9J5 1-950); assay: competition; let-7 guide (text: 110-fold); RBNS: 20 mM HEPES-KOH pH 7.9, 100 mM KOAc, 3.5 mM Mg(OAc) (magnesium acetate), 0.05% CHAPS, 2 mM DTT, 8% glycerol, BSA, tRNA, 25 C 2 h; filter binding: 25 mM HEPES-KOH pH 7.9, 110 mM KOAc, 3.5 mM magnesium acetate, 2 mM DTT, BSA, tRNA, 8% glycerol, 25 C 2 h; competition: 18 mM HEPES-KOH pH 7.4, 100 mM KOAc, 3 mM magnesium acetate, 5 mM DTT, 0.01% IGEPAL, tRNA, 25 C 1 h; details: protein: native; g2-g21, G:U at g4 and g5
[3] = target: T1, FLAG-Ago1; assay: RBNS; bantam guide; RBNS: 20 mM HEPES-KOH pH 7.9, 100 mM KOAc, 3.5 mM Mg(OAc) (magnesium acetate), 0.05% CHAPS, 2 mM DTT, 8% glycerol, BSA, tRNA, 25 C 2 h; filter binding: 25 mM HEPES-KOH pH 7.9, 110 mM KOAc, 3.5 mM magnesium acetate, 2 mM DTT, BSA, tRNA, 8% glycerol, 25 C 2 h; competition: 18 mM HEPES-KOH pH 7.4, 100 mM KOAc, 3 mM magnesium acetate, 5 mM DTT, 0.01% IGEPAL, tRNA, 25 C 1 h; details: protein: recombinant, tags: FLAG
[4] = target: T1, FLAG-Ago1; assay: RBNS; let-7 guide; RBNS: 20 mM HEPES-KOH pH 7.9, 100 mM KOAc, 3.5 mM Mg(OAc) (magnesium acetate), 0.05% CHAPS, 2 mM DTT, 8% glycerol, BSA, tRNA, 25 C 2 h; filter binding: 25 mM HEPES-KOH pH 7.9, 110 mM KOAc, 3.5 mM magnesium acetate, 2 mM DTT, BSA, tRNA, 8% glycerol, 25 C 2 h; competition: 18 mM HEPES-KOH pH 7.4, 100 mM KOAc, 3 mM magnesium acetate, 5 mM DTT, 0.01% IGEPAL, tRNA, 25 C 1 h; details: protein: recombinant, tags: FLAG
[5] = target: T2, Ago1 (RISC assembled in embryo lysate); assay: competition; let-7 guide; nearly same affinity as fully complementary; RBNS: 20 mM HEPES-KOH pH 7.9, 100 mM KOAc, 3.5 mM Mg(OAc) (magnesium acetate), 0.05% CHAPS, 2 mM DTT, 8% glycerol, BSA, tRNA, 25 C 2 h; filter binding: 25 mM HEPES-KOH pH 7.9, 110 mM KOAc, 3.5 mM magnesium acetate, 2 mM DTT, BSA, tRNA, 8% glycerol, 25 C 2 h; competition: 18 mM HEPES-KOH pH 7.4, 100 mM KOAc, 3 mM magnesium acetate, 5 mM DTT, 0.01% …; details: protein: native; g2-g21, G:U at g4
[6] = target: T1, FLAG-Ago1; assay: RBNS; miR-184 guide; RBNS: 20 mM HEPES-KOH pH 7.9, 100 mM KOAc, 3.5 mM Mg(OAc) (magnesium acetate), 0.05% CHAPS, 2 mM DTT, 8% glycerol, BSA, tRNA, 25 C 2 h; filter binding: 25 mM HEPES-KOH pH 7.9, 110 mM KOAc, 3.5 mM magnesium acetate, 2 mM DTT, BSA, tRNA, 8% glycerol, 25 C 2 h; competition: 18 mM HEPES-KOH pH 7.4, 100 mM KOAc, 3 mM magnesium acetate, 5 mM DTT, 0.01% IGEPAL, tRNA, 25 C 1 h; details: protein: recombinant, tags: FLAG
[7] = target: T1, FLAG-Ago1; assay: RBNS; miR-11 guide; G:U site analysis; RBNS: 20 mM HEPES-KOH pH 7.9, 100 mM KOAc, 3.5 mM Mg(OAc) (magnesium acetate), 0.05% CHAPS, 2 mM DTT, 8% glycerol, BSA, tRNA, 25 C 2 h; filter binding: 25 mM HEPES-KOH pH 7.9, 110 mM KOAc, 3.5 mM magnesium acetate, 2 mM DTT, BSA, tRNA, 8% glycerol, 25 C 2 h; competition: 18 mM HEPES-KOH pH 7.4, 100 mM KOAc, 3 mM magnesium acetate, 5 mM DTT, 0.01% IGEPAL, tRNA, 25 C 1 h; details: protein: recombinant; tags: FLAG; g2-g7 + t1A
[8] = target: T1, FLAG-Ago1; assay: RBNS; miR-11 guide; bulge site analysis; RBNS: 20 mM HEPES-KOH pH 7.9, 100 mM KOAc, 3.5 mM Mg(OAc) (magnesium acetate), 0.05% CHAPS, 2 mM DTT, 8% glycerol, BSA, tRNA, 25 C 2 h; filter binding: 25 mM HEPES-KOH pH 7.9, 110 mM KOAc, 3.5 mM magnesium acetate, 2 mM DTT, BSA, tRNA, 8% glycerol, 25 C 2 h; competition: 18 mM HEPES-KOH pH 7.4, 100 mM KOAc, 3 mM magnesium acetate, 5 mM DTT, 0.01% IGEPAL, tRNA, 25 C 1 h; details: protein: recombinant; tags: FLAG; g2-g7 + t1A

T1 sequence (A1Z9J5 entry or part of it): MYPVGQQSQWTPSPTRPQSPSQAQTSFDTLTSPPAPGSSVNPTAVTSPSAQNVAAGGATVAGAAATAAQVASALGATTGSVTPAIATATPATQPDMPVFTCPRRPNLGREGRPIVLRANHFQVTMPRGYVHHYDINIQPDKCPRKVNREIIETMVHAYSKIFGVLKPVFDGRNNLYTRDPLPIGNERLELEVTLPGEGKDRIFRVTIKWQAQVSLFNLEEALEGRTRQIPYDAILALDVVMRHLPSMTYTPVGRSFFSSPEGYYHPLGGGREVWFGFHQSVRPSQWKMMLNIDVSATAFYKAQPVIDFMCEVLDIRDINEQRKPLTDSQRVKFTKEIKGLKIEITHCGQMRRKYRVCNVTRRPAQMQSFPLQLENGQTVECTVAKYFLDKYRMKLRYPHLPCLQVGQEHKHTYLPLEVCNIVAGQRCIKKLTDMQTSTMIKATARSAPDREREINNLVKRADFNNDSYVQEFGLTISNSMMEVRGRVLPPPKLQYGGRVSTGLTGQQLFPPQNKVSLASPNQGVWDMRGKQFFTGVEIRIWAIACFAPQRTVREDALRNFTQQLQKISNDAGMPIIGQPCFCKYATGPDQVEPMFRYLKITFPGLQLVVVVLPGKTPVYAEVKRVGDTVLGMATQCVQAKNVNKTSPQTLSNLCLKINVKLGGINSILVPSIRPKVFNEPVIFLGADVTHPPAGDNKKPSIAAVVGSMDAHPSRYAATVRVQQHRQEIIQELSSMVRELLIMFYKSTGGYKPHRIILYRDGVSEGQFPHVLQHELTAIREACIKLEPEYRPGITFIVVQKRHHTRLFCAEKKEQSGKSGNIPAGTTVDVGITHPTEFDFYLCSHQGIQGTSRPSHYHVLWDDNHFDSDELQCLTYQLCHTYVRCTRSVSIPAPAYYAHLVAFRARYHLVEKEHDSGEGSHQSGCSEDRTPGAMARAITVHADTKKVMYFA
T2 sequence (A1Z9J5 entry or part of it): as above

B1: miR-11 / 8mer-w8 (dsRNA)
RNA 1: CAUCACAGUCUGAGUUCUUGC
RNA 2: UUGUGAUA
modifications: guide 5' phosphate
**Q.** For B1, which Kd ([1]; G:U at g8) is on record?
**A.** 0.0612 nM

B2: let-7 / competitor G:U at g4-g5 (dsRNA)
RNA 1: UGAGGUAGUAGGUUGUAUAGU
RNA 2: GAUACUAUACAACCUACUAUUUCAACCU
modifications: 2'-O-methyl and phosphorothioate at t10-t11
**Q.** With B2 as the binder, how does the binding signal [2] read?
**A.** 120 ± 20 fold Kd vs fully complementary

B3: bantam / 8mer (dsRNA)
RNA 1: UGAGAUCAUUUUGAAAGCUGAUU
RNA 2: UGAUCUCA
modifications: guide 5' phosphate
**Q.** How did the Kd ([3]; g2-g8 + t1A) turn out when B3 was run?
**A.** 0.0189 nM

B4: miR-11 / 8mer-b5.6G (dsRNA)
RNA 1: CAUCACAGUCUGAGUUCUUGC
RNA 2: CUGGUGAUA
modifications: guide 5' phosphate
**Q.** B4 was tested. Which Kd ([1]; nucleation bulge G between t5 and t6) did it give?
**A.** 0.107 nM

B5: let-7 / 6mer-m8 (dsRNA)
RNA 1: UGAGGUAGUAGGUUGUAUAGU
RNA 2: CUACCU
modifications: guide 5' phosphate
**Q.** Which Kd ([4]; g3-g8) does the source give for B5 here?
**A.** 0.328 nM

B6: let-7 / competitor G:U at g4 (dsRNA)
RNA 1: UGAGGUAGUAGGUUGUAUAGU
RNA 2: GAUACUAUACAACCUACUACUUCAACCU
modifications: 2'-O-methyl and phosphorothioate at t10-t11
**Q.** Does B6 bind [5]?
**A.** binds

B7: miR-184 / 7mer-m8,w2 (dsRNA)
RNA 1: UGGACGGAGAACUGAUAAGGGC
RNA 2: UCCGUCU
modifications: guide 5' phosphate
**Q.** B7 was tested. Which Kd ([6]; G:U at g2) did it give?
**A.** 0.154 nM

B8: let-7 / 8mer-b5.6A (dsRNA)
RNA 1: UGAGGUAGUAGGUUGUAUAGU
RNA 2: CUAACCUCA
modifications: guide 5' phosphate
**Q.** For B8, which Kd ([4]; nucleation bulge A between t5 and t6) is on record?
**A.** 0.12 nM

B9: let-7 / 7mer-A1 (dsRNA)
RNA 1: UGAGGUAGUAGGUUGUAUAGU
RNA 2: UACCUCA
modifications: guide 5' phosphate
**Q.** Which Kd ([4]; g2-g7 + t1A) does the source give for B9 here?
**A.** 0.0221 nM

B10: let-7 / 8mer-w8 (dsRNA)
RNA 1: UGAGGUAGUAGGUUGUAUAGU
RNA 2: UUACCUCA
modifications: guide 5' phosphate
**Q.** B10 was tested. Which Kd ([4]; G:U at g8) did it give?
**A.** 0.0154 nM

B11: miR-184 / 7mer-A1 (dsRNA)
RNA 1: UGGACGGAGAACUGAUAAGGGC
RNA 2: CCGUCCA
modifications: guide 5' phosphate
**Q.** B11 was tested. Which Kd ([6]; g2-g7 + t1A) did it give?
**A.** 0.037 nM

B12: miR-184 / 8mer-x4C (dsRNA)
RNA 1: UGGACGGAGAACUGAUAAGGGC
RNA 2: UCCGCCCA
modifications: guide 5' phosphate
**Q.** Which Kd ([6]; mismatch at t4) does the source give for B12 here?
**A.** ~0.13 nM

B13: miR-184 / 6mer-m8 (dsRNA)
RNA 1: UGGACGGAGAACUGAUAAGGGC
RNA 2: UCCGUC
modifications: guide 5' phosphate
**Q.** For B13, which Kd ([6]; g3-g8) is on record?
**A.** 0.321 nM

B14: bantam / 6mer-m8 (dsRNA)
RNA 1: UGAGAUCAUUUUGAAAGCUGAUU
RNA 2: UGAUCU
modifications: guide 5' phosphate
**Q.** For B14, which Kd ([3]; g3-g8) is on record?
**A.** 1.01 nM

B15: bantam / 7mer-m8,w2 (dsRNA)
RNA 1: UGAGAUCAUUUUGAAAGCUGAUU
RNA 2: UGAUCUU
modifications: guide 5' phosphate
**Q.** Which Kd ([3]; G:U at g2) does the source give for B15 here?
**A.** 0.866 nM

B16: let-7 / 8mer (dsRNA)
RNA 1: UGAGGUAGUAGGUUGUAUAGU
RNA 2: CUACCUCA
modifications: guide 5' phosphate
**Q.** B16 was tested. Which Kd ([4]; guide g2-g8 + t1A, site in 20-nt random RBNS library) did it give?
**A.** 0.00173 nM

B17: let-7 / 7mer-m8,w2 (dsRNA)
RNA 1: UGAGGUAGUAGGUUGUAUAGU
RNA 2: CUACCUU
modifications: guide 5' phosphate
**Q.** B17 was tested. Which Kd ([4]; G:U at g2) did it give?
**A.** 0.278 nM

B18: let-7 / 6mer-A1 (dsRNA)
RNA 1: UGAGGUAGUAGGUUGUAUAGU
RNA 2: ACCUCA
modifications: guide 5' phosphate
**Q.** For B18, which Kd ([4]; g2-g6 + t1A) is on record?
**A.** 0.092 nM

B19: miR-11 / 7mer-A1 (dsRNA)
RNA 1: CAUCACAGUCUGAGUUCUUGC
RNA 2: UGUGAUA
modifications: guide 5' phosphate
**Q.** Which results are given for B19?
**A.** Kd [7]: 0.0812 nM; Kd [8]: 0.07 nM

B20: miR-184 / 8mer-b5.6C (printed b5.6CA) (dsRNA)
RNA 1: UGGACGGAGAACUGAUAAGGGC
RNA 2: UCCCGUCCA
modifications: guide 5' phosphate
**Q.** With B20 as the binder, how does the Kd ([6]; nucleation bulge C between t5 and t6) read?
**A.** 0.038 nM
